# Results from US20220298225A1 (published 2022).
# Like-named read-outs stand apart in the source and are kept apart here.
# B1: CBD-SA (other)
# chain: CSQPLDVILLLDGSSSFPASYFDEMKSFAKAFISKANIGPRLTQVSVLQYGSITTIDVPWNVVPEKAHLLSLVDVMQREGGPSQIGDALGFAVRYLTSEMHGARPGASKAVVILVTDVSVDSVDAAADAARSNRVTVFPIGIGDRYDAAQLRILAGPAGDSNVVKLQRIEDLPTMVTLGNSFLHKLCSGFVRIGGGSGGGSEAHKSEIAHRYNDLGEQHFKGLVLIAFSQYLQKCSYDEHAKLVQEVTDFAKTCVADESAANCDKSLHTLFGDKLCAIPNLRENYGELADCCTKQEPERNECFLQHKDDNPSLPPFERPEAEAMCTSFKENPTTFMGHYLHEVARRHPYFYAPELLYYAEQYNEILTQCCAEADKESCLTPKLDGVKEKALVSSVRQRMKCSSMQKFGERAFKAWAVARLSQTFPNADFAEITKLATDLTKVNKECCHGDLLECADDRAELAKYMCENQATISSKLQTCCDKPLLKKAHCLSEVEHDTMPADLPAIAADFVEDQEVCKNYAEAKDVFLGTFLYEYSRRHPDYSVSLLLRLAKKYEATLEKCCAEANPPACYGTVLAEFQPLVEEPKNLVKTNCDLYEKLGEYGFQNAILVRYTQKAPQVSTPTLVEAARNLGRVGTKCCTLPEDQRLPCVEDYLSAILNRVCLLHEKTPVSEHVTKCCSGSLVERRPCFSALTVDETYVPKEFKAETFTFHSDICTLPEKEKQIKKQTALAELVKHKPKATAEQLKTVMDDFAQFLDTCCKAADKDTCFSTEGPNLVTRCKDALAHHHHHH
# Columns and labels:
# Test in all cases: ELISA
# Collagen I [1] = biological target: Collagen I
# Collagen III [2] = biological target: Collagen III
# Collagen I [3] = biological target: Collagen I; remark: listed apart in the source
# Collagen III [4] = biological target: Collagen III; remark: listed apart in the source
binder,measurement,setting,value
B1,Kd,Collagen I [1],1.8 nM
same,Kd,Collagen III [2],40.6 nM
same,Kd,Collagen I [3],1.8 nM
same,Kd,Collagen III [4],40.6 nM
